Consider one molecule from publication doi:10.1101/2022.06.18.496527 (2022).

Bounds are passed on as bounds.

The assay concerns the target AVR-Pii effector domain (residues 20 to 70), purified (Magnaporthe oryzae). Briefly: ITC.

B1: OsExo70F2^Δ83 (residues 84 to 689) (domain or fragment)
chain: ISAAAFDAAEQLIQVWDGTPEALVFEATEDEVAEYLSAVDVAIEHLARGSGGGAGGAGSSSSSTAGRAGVAVQLAMARLEEELRHLMVRHAVPLDPTGLFFSLRRLSLGSMDDLDTSSEFDAATPHSIDVAPETARGGPLVNPFEDQVFDPVRPEAVDDLRAIADRMARAGYSRELADAYCGIRRDLLDEYLSALGVERLSIDEVQRIEWKHLNDKMKKWVQAVKTVVRVLLAGERRLCDQVLSVSDELREECFIESTKGCIMQILSFGDAVAVCPRSPEKLSRILDMYEALAEVIPEMKDLCLGSSGDGVISDVQANLDRLGDAIRGTLFEFGKVLQLESSRRAMTAGEIHPMTRYVMNYLRLLVVYSDTLDALLDDNADDQIDLARAEDQDQEHLESMTPLGKRLLKLISYLEANLEEKSKLYEDSALECIFSMNNLLYIVQKVRDSELGKILGDHWVKRRNGKIRQYSKSYLRISWMKVLSFLKDDGHGSGSGSSSGSGSGHSSSRMSIKEKFKNFNLAFEEIYRNQTTWKVPDPQLREELKISISENVIPAYRAFLGRYGSQVDGGRNSGKYIKYTPEDLESQLSDLFEGAPGPANHSRRRT
As to B1, the Kd was < 1 nM.
